In patent US20250179205A1 (Hoffmann-La Roche, published 2025):

Columns and labels:
[1] = molecular target: T1, His-tagged human dimeric FAP (recombinant FAP_ECD) (human, UniProt Q12884 27-760); assay: method not stated; SPR as in Example 5.3.2 presumed
T1 construct: also called hu FAP ectodomain + poly-lys-tag + his6-tag

[2] = molecular target: T2, human fibroblast activation protein (huFAP) (human, UniProt Q12884 1-760); assay: flow cytometry, NIH/3T3-huFAP clone 19 cells, PE anti-human Fc F(ab')2
T2 construct: expressed on transfected NIH/3T3-huFAP clone 19 cells; also called human FAP
Protocol: (§1) NIH/3T3-huFAP clone 19 and NIH/3T3-mFAP clone 26 were generated by the transfection of the mouse embryonic fibroblast NIH/3T3 cell line (ATCC CRL-1658) with the expression vector pETR4921 to express under 1.5 μg/mL Puromycin selection huFAP or mFAP, respectively.
(§2) NIH/3T3-huFAP, NIH/3T3-mFAP or NIH/3T3-wt cells were cultured with 1× Dulbecco's Modified Eagle's Medium (DMEM) (Gibco, Cat. No. 42430-025) supplemented with 10% Fetal Bovine Serum (FBS) (life technologies, Cat. No. 16140, Lot No. 1797306A). For the NIH/3T3-huFAP and NIH/3T3-mFAP cells 1.5 μg/mL Puromycin (Gibco, Cat. No. A11138-03) was added to the medium for selection of FAP-expressing cells. NIH/3T3 cells were removed from the plate by using enzyme-free Cell Dissociation Buffer (Gibco, Cat. No. 13151014). 0.3×10⁵ NIH/3T3-huFAP clone 19, NIH/3T3-mFAP clone 26 or NIH/3T3-wt were added in 200 μl of 1×DMEM 10% FBS to each well of a round-bottom 96-well plate (Greiner Bio-One, CELLSTAR®, Cat. No. 650185). Plates were centrifuged 5 minutes at 1700 rpm and supernatants were flicked off. Cells were washed once with 200 μL of 4° C. cold FACS buffer (eBioscience, Cat. No. 00-4222-26). All samples were resuspended in 50 μL/well of 4° C. cold FACS buffer containing the bispecific antigen binding molecules (primary antibody) or isotype control antibody DP47 at the indicated range of concentrations (in duplicates) and incubated for 120 minutes at 4° C. Afterwards the cells were washed three times with 200 μL 4° C. cold FACS buffer. Cells were further stained with 25 μL/well of 4° C. cold secondary antibody solution (1:50 dilution of secondary antibody) containing R-Phycoerythrin (PE) conjugated AffiniPure F(ab′)₂ Fragment Goat Anti-Human IgG, Fcγ Fragment Specific (Jackson ImmunoResearch, Cat. No. 109-116-098) and incubated for 60 minutes at 4° C. in the dark. Cells were washed with 200 μl FACS buffer and resuspended in 85 μL/well FACS-buffer containing 0.2 μg/mL DAPI (Roche, Cat. No. 10236276001) and acquired the same day using 5-laser LSR-Fortessa (BD Bioscience with DIVA software). Data analysis was performed using the FlowJo version 10 software (FlowJo LLC).

[3] = molecular target: T1, His-tagged human dimeric FAP …; assay: SPR (Biacore T200), His-tagged dimeric huFAP ECD captured by anti-His, antibody as analyte, 1:1 fit (avidity)
Protocol: The capacity of the bispecific constructs to bind human FAP was assessed by surface plasmon resonance (SPR). All SPR experiments were performed on a BIACORE® T200 (BIACORE®) at 25° C. with HBS-EP as running buffer (0.01 M HEPES pH 7.4, 0.15 M NaCl, 3 mM EDTA, 0.005% Surfactant P20, (BIACORE®).
His-tagged human dimeric FAP (recombinant FAP_ECD) was captured on a CM5 chip (GE Healthcare) immobilized with anti-His antibody (Qiagen Cat. No. 34660) by injection of 500 nM huFAP for 60 s at a flow rate of 10 uL/min, 10 nM murine FAP for 20 s at a flow rate of 20 uL/min and 10 nM cynoFAP for 20 s at a flow rate of 20 uL/min. Immobilization levels for the anti-His antibody of up to 18000 resonance units (RU) were used. Following the capture step, the bispecific antibodies as well as control molecules were immediately passed over the chip surface at a concentration ranging from 0.78-100 nM with a flow rate of […] for 280 s and a dissociation phase of 180 s. Bulk refractive index differences were corrected for by subtracting the response obtained in a reference flow cell, where no FAP was immobilized. Avidity was determined using the Langmuir 1:1 curve fitting. For bivalent binding the same 1:1 fitting was used leading to an apparent KD value.

[4] = molecular target: T3, mouse fibroblast activation protein (mFAP) (mouse, UniProt P97321 1-761); assay: flow cytometry on NIH/3T3-mFAP cells (3T3_mFAP), PE-labelled anti-human IgG Fcgamma F(ab')2 secondary, MFI baseline corrected
T3 construct: expressed on transfected NIH/3T3-mFAP clone 26 cells; also called murine FAP; mouse FAP
Protocol: as §1, §2

[5] = molecular target: T4, human CD40 (human, UniProt P25942 21-277); assay: flow cytometry, Raji cells, Alexa488 anti-huIgG
T4 construct: on Daudi cells, Raji cells, human B cells or HEK-Blue CD40L cells; also called hu CD40; CD40 receptor
Protocol: CD40 positive cells (Raji cells) were detached from the culture bottle using Trypsin and were counted using a Casy cell counter. After pelleting at 4° C., the cells were resuspended in FACS Buffer (2.5% FCS in PBS), adjusted to 2.0E+06 cells/mL, and dispensed to 96-well PP V-bottom-plates (25 μL/well=5.0E+04Zellen/well).
The CD40 specific antibodies were adjusted to 20 μg/mL in FACS buffer, resulting in a final concentration of 10 μg/mL. […] were added to 25 μl cell suspension and incubated for 1 h at 4° C. The cells were then washed twice in FACS buffer. After washing, the cells were resuspended in 50 μL FACS-buffer containing secondary antibody (<huIgG>-Alexa488, c=10 μg/mL) and incubated 1 h at 4° C. The cells were then washed twice in FACS buffer and resuspended in 70 μl/well FACS buffer for measurement using a FACS Canto (BD, Pharmingen).

[6] = molecular target: T5, Human CD40 extracellular domain with C-terminal His-AviTag (human); assay: SPR (Biacore), antibody captured by anti-human F(ab')2, CD40 ECD as analyte, 1:1 model
T5 construct: analyte in solution in the SPR assays; also called recombinant human CD40_ECD
Protocol: Around 12000 resonance units (RU) of the capturing system (10 μg/ml goat anti human F(ab)′₂; Order Code: 28958325; GE Healthcare Bio-Sciences AB, Sweden) were coupled on a CM5 chip (GE Healthcare BR-1005-30) at pH 5.0 by using an amine coupling kit supplied by the GE Healthcare. The sample and system buffer was PBS-T (10 mM phosphate buffered saline including 0.05% Tween20) pH 7.4. The flow cell was set to 25° C.—and the sample block set to 12° C.—and primed with running buffer twice. The antibody was captured by injecting a 50 nM solution for 30 sec at a flow of 5 μl/min. Association was measured by injection of human CD40 extra cellular domain or cynomolgus monkey CD40 extracellular domain in various concentrations in solution for 300 sec at a flow of 30 μl/min starting with 300 nM in 1:3 dilutions. The dissociation phase was monitored for up to 1200 sec and triggered by switching from the sample solution to running buffer. The surface was regenerated by 60 sec washing with a Glycine pH 2.1 solution at a flow rate of 30 μl/min. Bulk refractive index differences were corrected by subtracting the response obtained from a goat anti human F(ab′)₂ surface. Blank injections are also subtracted (=double referencing). For calculation of apparent KD and other kinetic parameters the Langmuir 1:1 model was used. The apparent Kd was calculated using the BIACORE® B4000 evaluation software (version 1.1).

[7] = molecular target: T4, human CD40; assay: cell-based or functional assay
[8] = molecular target: T4, human CD40; assay: cell-based or functional assay; remark: listed apart in the source
[9] = molecular target: T4, human CD40; assay: cell-based or functional assay; remark: listed apart in the source
[10] = molecular target: T4, human CD40; assay: flow cytometry, Daudi cells, PE anti-human Fc F(ab')2
Protocol: The binding to cell surface CD40 was tested using Daudi cells, a human B lymphoblast cell line with high expression levels of human CD40 (ATCC CCL-213). Daudi cells were cultured with 1× Dulbecco's Modified Eagle's Medium (DMEM) (Gibco, Cat. No. 42430-025) supplemented with 10% Fetal Bovine Serum (FBS) (life technologies, Cat. No. 16140, Lot No. 1797306A). 0.3×10⁵ Daudi cells were added in 200 μl of 1×DMEM with 10% FBS to each well of a round-bottom 96-well plate (Greiner Bio-One, CELLSTAR®, Cat. No. 650185). Plates were centrifuged 5 minutes at 1700 rpm and supernatants were flicked off. Cells were washed once with 200 μL of 4° C. cold FACS buffer (eBioscience, Cat. No. 00-4222-26). All samples were resuspended in 50 μL/well of 4° C. cold FACS buffer containing the bispecific antigen binding molecules (primary antibody) or isotype control antibody DP47 at the indicated range of concentrations (in duplicates) and incubated for 120 minutes at 4° C. Afterwards the cells were washed three times with 200 μL 4° C. cold FACS buffer. Cells were further stained with 25 μL/well of 4° C. cold secondary antibody solution (1:50 dilution of secondary antibody) containing R-Phycoerythrin (PE) conjugated AffiniPure F(ab′)₂ Fragment Goat Anti-Human IgG, Fcγ Fragment Specific (Jackson ImmunoResearch, Cat. No. 109-116-098) and incubated for 60 minutes at 4° C. in the dark. Cells were washed with 200 μl FACS buffer and resuspended in 85 μL/well FACS-buffer containing 0.2 μg/mL DAPI (Roche, Cat. No. 10236276001) and acquired the same day using a 5-laser LSR-Fortessa (BD Bioscience with DIVA software). Data analysis was performed using the FlowJo version 10 software (FlowJo LLC).

T4 sequence (P25942 21-277 limits assumed): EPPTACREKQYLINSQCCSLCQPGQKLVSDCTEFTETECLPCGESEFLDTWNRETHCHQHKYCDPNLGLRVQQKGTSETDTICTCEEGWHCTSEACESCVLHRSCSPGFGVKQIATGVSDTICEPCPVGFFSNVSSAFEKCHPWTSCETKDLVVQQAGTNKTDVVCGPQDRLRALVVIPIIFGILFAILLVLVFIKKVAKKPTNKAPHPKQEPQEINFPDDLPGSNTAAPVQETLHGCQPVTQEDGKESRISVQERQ
T5 sequence (chain, as listed by the source limits assumed): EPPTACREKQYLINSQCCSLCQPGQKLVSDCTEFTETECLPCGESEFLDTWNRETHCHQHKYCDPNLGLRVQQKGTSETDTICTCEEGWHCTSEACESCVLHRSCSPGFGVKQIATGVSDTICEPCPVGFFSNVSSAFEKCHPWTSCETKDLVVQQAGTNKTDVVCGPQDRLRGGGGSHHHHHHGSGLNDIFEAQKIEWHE
T3 sequence (P97321 whole entry): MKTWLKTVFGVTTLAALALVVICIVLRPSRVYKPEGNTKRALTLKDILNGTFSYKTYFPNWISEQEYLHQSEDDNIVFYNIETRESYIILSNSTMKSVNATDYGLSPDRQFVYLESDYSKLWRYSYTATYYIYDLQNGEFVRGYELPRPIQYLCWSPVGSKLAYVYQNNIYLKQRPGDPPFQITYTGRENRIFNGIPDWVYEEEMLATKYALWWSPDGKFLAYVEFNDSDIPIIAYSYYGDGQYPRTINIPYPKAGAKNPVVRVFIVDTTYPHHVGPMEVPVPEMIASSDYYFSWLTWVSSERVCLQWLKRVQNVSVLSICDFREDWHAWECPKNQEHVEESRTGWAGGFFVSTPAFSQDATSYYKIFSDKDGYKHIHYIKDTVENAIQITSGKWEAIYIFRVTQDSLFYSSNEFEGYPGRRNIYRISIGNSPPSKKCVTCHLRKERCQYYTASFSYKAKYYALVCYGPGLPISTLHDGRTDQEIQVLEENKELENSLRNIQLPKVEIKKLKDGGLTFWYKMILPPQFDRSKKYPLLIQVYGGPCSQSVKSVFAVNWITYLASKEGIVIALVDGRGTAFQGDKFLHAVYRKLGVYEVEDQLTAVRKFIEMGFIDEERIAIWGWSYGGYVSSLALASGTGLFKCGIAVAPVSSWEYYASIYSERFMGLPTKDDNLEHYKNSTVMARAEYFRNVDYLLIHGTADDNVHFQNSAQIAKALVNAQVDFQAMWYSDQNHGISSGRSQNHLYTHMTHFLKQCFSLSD

Binder	Kd [1] [nM]	EC50 [2] [nM]	Kd [3] [nM]	koff [3] [s⁻¹]	kon [3] [M⁻¹ s⁻¹]	EC50 (read off the curve) [4] [nM]	EC50 [5] [µg/mL]	Kd [6] [nM]	koff [6] [s⁻¹]	kon [6] [M⁻¹ s⁻¹]	EC50, activation of human Daudi cells (CD70 expression) with FAP-coated Dynabeads [7] [nM]	EC50, activation of human B cells with FAP-coated Dynabeads, increase of CD86 expression [8] [nM]	EC50, activation of HEK-Blue CD40L cells (SEAP) with murine FAP-coated Dynabeads [9] [nM]	EC50 [10] [nM]	binding result [4]
P1AE0408 CD40 × FAP (28H1) (2 + 1) head to tail (bispecific antibody, human IgG1, kappa, L234A L235A, a CD40 Fab fused to the N-terminus of the FAP crossFab on the knob chain; also called CD40 × FAP 2 + 1 head-to-tail; 2 + 1 head-to-tail format) heavy 1: not shown heavy 2: EVQLVESGGGLVQPGGSLRLSCAASGYSFTGYYIHWVRQAPGKGLEWVARVIPNAGGTSYNQKFKGRFTLSVDNSKNTAYLQMNSLRAEDTAVYYCAREGIYWWGQGTLVTVSSASTKGPSVFPLAPSSKSTSGGTAALGCLVEDYFPEPVTVSWNSGALTSGVHTFPAVLQSSGLYSLSSVVTVPSSSLGTQTYICNVNHKPSNTKVDEKVEPKSCDKTHTCPPCPAPEAAGGPSVFLFPPKPKDTLMISRTPEVTCVVVDVSHEDPEVKFNWYVDGVEVHNAKTKPREEQYNSTYRVVSVLTVLHQDWLNGKEYKCKVSNKALGAPIEKTISKAKGQPREPQVCTLPPSRDELTKNQVSLSCAVKGFYPSDIAVEWESNGQPENNYKTTPPVLDSDGSFFLVSKLTVDKSRWQQGNVFSCSVMHEALHNRFTQKSLSLSPGK light 1: DIQMTQSPSSLSASVGDRVTITCRSSQSLVHSNGNTFLHWYQQKPGKAPKLLIYTVSNRFSGVPSRFSGSGSGTDFTLTISSLQPEDFATYFCSQTTHVPWTFGQGTKVEIKRTVAAPSVFIFPPSDRKLKSGTASVVCLLNNFYPREAKVQWKVDNALQSGNSQESVTEQDSKDSTYSLSSTLTLSKADYEKHKVYACEVTHQGLSSPVTKSFNRGEC light 2: EVQLLESGGGLVQPGGSLRLSCAASGFTFSSHAMSWVRQAPGKGLEWVSAIWASGEQYYADSVKGRFTISRDNSKNTLYLQMNSLRAEDTAVYYCAKGWLGNFDYWGQGTLVTVSSASVAAPSVFIFPPSDEQLKSGTASVVCLLNNFYPREAKVQWKVDNALQSGNSQESVTEQDSKDSTYSLSSTLTLSKADYEKHKVYACEVTHQGLSSPVTKSFNRGEC	1.5	7.99	6	0.00174	291000	~8	–	–	–	–	–	–	–	–	–
P1AE0816 CD40 IgG1_LALAPG antibody (control) (antibody, V domains shown, huIgG1 LALA PG; control for acceptor framework 1) VH: QVQLVQSGAEVKKPGASVKVSCKASGYSFTGYYIHWVRQAPGQSLEWMGRVIPNNGGTSYNQKFQGRVTISVDKSISTAYMELSSLRSEDTAVYYCAREGIYWWGHGTTVTVSS VL: DVVVTQSPLSLPVTPGEPASISCRSSQSLVHSNGNTFLHWYLQKPGQSPQLLIYTVSNRFSGVPDRFSGSGSGTDFTLKISRVEAEDVGVYFCSQTTHVPWTFGGGTKLEIKR	–	–	–	–	–	–	0.09	8.7	0.0219	2.53e+06	–	–	–	–	–
P1AD4470 CD40 IgG (antibody, V domains shown, bivalent anti-human CD40 IgG1; cross-linked with anti-human Fc F(ab')2 in the functional assays; also called CD40 IgG1 PGLALA; CD40 IgG1) VH: EVQLVESGGGLVQPGGSLRLSCAASGYSFTGYYIHWVRQAPGKGLEWVARVIPNAGGTSYNQKFKGRFTLSVDNSKNTAYLQMNSLRAEDTAVYYCAREGIYWWGQGTLVTVSS VL: DIQMTQSPSSLSASVGDRVTITCRSSQSLVHSNGNTFLHWYQQKPGKAPKLLIYTVSNRFSGVPSRFSGSGSGTDFTLTISSLQPEDFATYFCSQTTHVPWTFGQGTKVEIKR	–	–	–	–	–	–	0.09	4.6	0.00781	1.69e+06	0.756	0.072	0.125	0.104	no binding (tested: 500 nM)
